{
  "source": "the DeepSol protein solubility set",
  "data": [
    {"assay": "soluble on expression in E. coli; label from the status in PepcDB or PDB records", "values": [
      {"sequence": "MGSDKIHHHHHHMTLADYVEIETTKDELIRACKQAADLIRTRVDYKYILVLLFLKKLSDEWKREYREALKTLMEKGVDEEEAKILAKDRSFHKFDYPEKYTWEELRKNVNELPVRLSEALKLLAEKNPELQGVVDRLDFLEFTRARDNFDILVQLFELFSGLNLGRASDSILGDAYEWLIGYFAPQKAKEGEVFTPSEVVELIVRIVDPKPMDSVYDPAAGYARMLIRAYDYVKEKYGEEEVRKLFLYGQEVNPTTYAIAKMNAIVHGIKDINLVVGDTLKNPRFKEGETFRKFDIVIANPPWNQDGYGEEELKKAEFYDERFRYGFTPKQSADWAWIQHMLASAKKKVGVVIDNGCLFRGGKEGAIRKAVVEDDLIECVILLPEKLFYNTGAPGAIIIFNKQKPESRKGKILFINASNEYEKHPEVRKLNRLGEKHIEKIVSAYREFKDGDGFCRVVDVEEVRKNDYNLNVTLYVFPQEEVEEIDVAKEWEELRGIEREIDEVERRIEEYLAELGFGRG", "soluble on expression in E. coli": "not soluble"},
      {"sequence": "MGHHHHHHSHMLSSNGASKVANSEAMILDKNLESVNSPIEKSSVNYEPSNPSEKGSKKINLSSDQNKSVSESNNDDVMLISVESPNLTTPTTSNPTDTRKITSGNSSNSPNAEVMAVQKKLDSIIDLTKEGLSNCNTESPVSPLESHSKAASNSKETTPLAQNAVQVPESFEHLPPLPEPPAPLPELVDKTRDTLPPQKPELKVKRVFRPNGIALTWNITKINPKCAPVESYHLFLCHENSNNKLIWKKIGEIKALPLPMACTLSQFLASNRYYFTVQSKDIFGRYGPFCDIKSIPGFSENLT", "soluble on expression in E. coli": "soluble"},
      {"sequence": "MKQIKNTHYEGERPLFASHGLYLEEVTIHAGESALKECSDIEAVNCRFEGKYPFWHNDGFVVKNCLFTEGARAALWYSRNLKMKDTLVEAPKMFREMDGVELENVQLPNALETLWYCRNVELNNVKIDKGDYLFIHGEDIRIKNFVLNGNYSFQYCKNVEIRHAEIHSKDAFWNTENVTVYDSVLDGEYLGWHSKNLRLVNCKISGTQPLCYAHDLIMENCTMADDADLAFEHSSVKATIKGPVHSVKNPRTGNIVAESFGTIILDENLKAPGNCELKLWDGLTCFD", "soluble on expression in E. coli": "soluble"},
      {"sequence": "MGSDKIHHHHHHMEVSEFCLEGRFINFVIKDGYKLKGLMLGTHEGEFYIKLAKQLRAAFDLRLPPGTWLQVVGYKKHDLKDGTITLKAERVMAARSEMGRVQTTTPVQEPPSIHNVKVKPAKAKATILVCQKSDCMKRGGKAVCQALEAALSDRGLEDQVTIKGTGCMKNCKAGPNLVMPDKTRHSRIQAAQVPRLMDKHFGDKSLEAQPENLREVAITNGKLC", "soluble on expression in E. coli": "not soluble"},
      {"sequence": "MSLRLEGVVVPLITPFLEDYSIDKEGLKWLVSYLSENGVNGIFVNSSVGEFASLTLDEMKLVTKIALDSRKSYSTLIFAGASTNFTEETIKLAKDFKDMGVDAIVVMAPYFFKVREKELLDHFSMIAEKVDLPIIIYNIPLFTGIDIPISVYKMLVSQHSNIIGTKVTLDSLIFFKKLISEIREIRKDFSILTGFDEYLLPLLYMGGNGGVMGLANAIPKLHLKVYESWKNGNLSDANKYWRNVLNLTDIYDYCNSYTASIKLLLKVLNMPIKNVVRPPLSICEEESKIRGMIKDLSSFLTNSEGHHHHHH", "soluble on expression in E. coli": "soluble"},
      {"sequence": "SEPIAAAPQIPVSEWDNPGIKLQVAPIPRICGMPEVQDMKLITPVRRSARIERTVARYPEMLQEHDVVVASLNELLEVDKTECFIFRENEALPVTLGFEVLES", "soluble on expression in E. coli": "not soluble"},
      {"sequence": "MGSDKIHHHHHHMGIKIPNMKPNYSLDDMRCFCMVAQYGSFKQAAVALQMPLSTLSRRIAKLEQDLALRLFNRDAHRVQLTFAGQRYYRRSAPIFDELDNVAACLQQDRNEAKGTIRISAPINFSVQVLVHHFNAFMRQYPDIELDLKLSNQTIDIDEEAMDLAFRIGHHSATHWIGRQLTNIRFAICGPANLDVSHIKAPADLAGLPTVLCSPMLTWSLQHIHSGEKQAYTATDNIRLKVDDMSLLTEVIAGGIGVGFIPDYHAQPLLESGKIQHILPAWSNQARGCEMLYRDRENIPYRVRLFIDFMLQRFKSNDGVM", "soluble on expression in E. coli": "not soluble"},
      {"sequence": "MRFTVTSRGDDVSNTLQQKIKRYLLDFGLTLDEQEPDIVITVGGDGTLLHAFHRYTSRLEDTAFVGIHTGHLGFYADWVPDEVEKLVIHIAKTPYQIVEYPLLEVVVRHTDESESKRLLALNECTVKSQEGSLVSNVEIKGDVFEVFRGDGLCISTPSGSTAYNKALGGAILHPSLASIQISEMASINNRVYRTIGSPLVLPQHHTCLIKPLNQVELQVTIDHFTLAYKRVKSIQCRVAEEKIRFARFRPFPFWKRVKESFIGDSLEHHHHHH", "soluble on expression in E. coli": "soluble"},
      {"sequence": "MSGAESYRHITVLLNEAVDALAVREDGVYVDGTFGRGGHSRLILSRLGDAGRLIVFDKDPQAIAVAEELARSDKRVGVVHGGFASFQTALDGLGIGKVDGALFDLGISSPQIDDGSRGFSFRFDAPLDMRMDTTRGMSAAEWIAVASEQDLHEVIKNYGEERFSRQIARAIVAQRAESPIDTTRKLAQIVAQNVRTRERGQDPATRTFQAIRIFINRELEEVGAVLPQVMCRLKEGGRLAVIAFHSLEDRIVKQFVKKYSQHAPLPRWAAVREADLPEPPLKIAGRALKPGEAEIAANPRARSAVLRVAERTAGPIPEQSQRKTSEWQLEHHHHHH", "soluble on expression in E. coli": "not soluble"},
      {"sequence": "MFPSFLRRTAAKNGSYANEISSSIIINRPAERLFDLWRKPETLPILMGHFASIEILNHTDSNWRINTPIGSLIEWQARIIDEKPGEYIHWRSLEGARVPNEGRLSFQPAASEAGTAVTLTIRYNPPGGLIGKKIGQMFDMFSRDMLTKTLYRFKKLAEDERVLEHHHHHH", "soluble on expression in E. coli": "not soluble"},
      {"sequence": "MGSDKIHHHHHHMSDFSPIAWTEGMFLRPQHMQQQERFLQHQQARTAKNNNPLAWGVVSYEVNYGLLPLGQFGLDRIDCVFPDNTLACLPEQSPLPTAITVPAGTLDQLVYLVLPVAKSNGMNISSSEQNQITRYSYEDHNIVDTSVGSDAMEVLQVAKLDCRLKLQSEDRSGYVSIAIARVIDVSEEGVIRLDKKFIPACIGIEHIKTLMNMTTEVTGMINQRAEAIAGRLSQSQGTSSSIADFLMLQLLNKYQPIFEHYGVVNHIHPELLFRTLISFSGELSTFSSPNKRPPKFPVYQHDNLTYVFSNTMVIVNHGLSSVLEQSATELILEKTKFGVYFSTIADKSMLDNAEFILAVKANVPHDELRQRLPSQIKIGSVETIRELVNNQLPGIGISNLPVAPRQVPYHAGYHYFQLDKNNSHWIKLKSSGGVAMHISGAYPELQIELWAVSI", "soluble on expression in E. coli": "not soluble"},
      {"sequence": "MVSCENLWQQALAILATQLTKPAFDTWIKASVLISLGDGVATIQVENGFVLNHLQKSYGPLLMEVLTDLTGQEITVKLITDGLEPHSLIGQESSLPMETTPKNATALNGKYTFSRFVVGPTNRMAHAASLAVAESPGREFNPLFLCGGVGLGKTHLMQAIAHYRLEMYPNAKVYYVSTERFTNDLITAIRQDNMEDFRSYYRSADFLLIDDIQFIKGKEYTQEEFFHTFNSLHEAGKQVVVASDRAPQRIPGLQDRLISRFSMGLIADIQVPDLETRMAILQKKAEYDRIRLPKEVIEYIASHYTSNIRELEGALIRAIAYTSLSNVAMTVENIAPVLNPPVEKVAAAPETIITIVAQHYQLKVEELLSNSRRREVSLARQVGMYLMRQHTDLSLPRIGEAFGGKDHTTVMYSCDKITQLQQKDWETSQTLTSLSHRINIAGQAPESLEHHHHHH", "soluble on expression in E. coli": "not soluble"},
      {"sequence": "MGSDKIHHHHHHMPRHVSNLELHNQIQEAALQSHLVPLGSIQLTPHFIPVEGLRRSIQRALKNCQPQDFLYCNKQGHEQLRKALSDHWREDGIYIAPEDIFITNGCMPALSLVIQKLTEVGDSILIPTPTYNGHLQLLASLKRQIVEIPADHRGIDLERLESLMQQGLAKVCLMTANYQNPLGYCFSNAEKQKIAELAAEYQCFIIEDDIFGECGYSSERPLPIRYWDREGYVVWCGSVSKSLSSAYRVGWFCLTTKLEHLKLELLVSNIGVNTPLQLGLADFIYSRGYREHLEQLRPNLMRQVEEYRSCILRAFEGIPIALSQPEGGYALWIQLPKSVDSLALYYTAQAQGITVVPGYVFGEDERYRHFIRLNAGHELTADVRQAIMSLADWSRQQMQTVS", "soluble on expression in E. coli": "not soluble"},
      {"sequence": "SSRERIKRELPPVQEHIDKLRKVIEEGNYYGALQMYKSISARYVTAQRFSEALDILFSGACIELEHGLVNCGADLAILFVDTLVKATSPCNDETLDRIRCIFKLFPRVPVPPHLVDVSDDEDVQNLQESLGEARSRVENLTSFLRAAIKWSAEFGGPRTGYPELHAMLGDYLYTECPELDMVRISRHFVRAEDPEKFASMLVNFMGRCYPGEDDLAIARAVLMYLSMGNMKDANFMMDEIKKQAETKNPELSESDLIQFISYLLETLQRDALPLFNMLRVKYKSSIDRDQLLNELLDEIAERFYGVQRKNPLQGMFGDIFKMMG", "soluble on expression in E. coli": "soluble"},
      {"sequence": "MTKAKRTYEPWYWANEHTRLYMRRGYLLPGVSVEERVKEIAQRAEALTKVEGFGRKFLEYMARGWYSLATPIWANYGLRRGLPISCYGTYVEDDTASILRAVAEVGMMSKQGGGTSLYLGRLRPRGAPIRDNGESNGSFAFASLFDRVIEVFNQGSTRRGQCAAYLDVEHPDLEEWLSIQREHSPVQSLFWGVSVGDRWLEEMIAGDGEKRARWAKILKSRAEVGIPYLFFRDNANQKAPEVFRALGKTIWASNLCTEIMLPSSEEESFVCCLSSLNLLHYEEWKDTDAVETLVIFLDSVLDDFIEKAEGIPYMERAVRFAKRYRAIGLGVLGWHSYLQSQRIPLESPEAFRRNAEIFKTIRERAEEASRWLRKRHPEDELAGVGELKERRNATLLAIAPTKSSAFILGQVSPSIEPYTSNYYLKDLQKARVPFKNPFLEEVLREKGKDEEKVWRSILEHNGSVQHLDFLTDEEKAVFKTFAEISQMTLVNLAASRQKHIDQGQSLNLVIHPEAPPRDVNALVLHAWRSGLKALYYQFSQSVAQAYSRDLLLSCQACEG", "soluble on expression in E. coli": "soluble"},
      {"sequence": "MRWNLDPTHTSVEFAVRHMMIATVRGTMGLKEGYVETDETGKPIRVEARLDAASIHTGVADRDNHLRSPDFLDVANHPEIVFRSEKITPLGEGRYRVEGEVTIRGVTRPLAFEVETHGPAKDPWGNERIAAHFEGKLNRKDFGLTWNMPLETGGLLVGEEVRFSVDTQAVKAKEAVAQ", "soluble on expression in E. coli": "soluble"},
      {"sequence": "LHRIVDKMHDTSTGIRPSPNMEQGSTYKKTFLGSSLVDWLISSNFAASRLEAVTLASMLMEENFLRPVGVRSMGAIRSGDLAEQFLDDSTALYTFAESYKKKVSSKE", "soluble on expression in E. coli": "soluble"},
      {"sequence": "MEPIWRNYPYPTYPGHHNFQFDPLLSDGSHTGVNQLGGVFVNGRPLADTVRAQIVEMSQHGTRPCDISRQLKVSHGCVSKILGRYYSTGSVRPGVIGGSKPKVATPRVVECIAGYKRANPTMFAWEIRQKLIEDQICGEENVPSVSSINRIVRNKSFMAQLAAPTSVTSSAARPSSATSHHQRSPPRGVQQHMQQSTSVQQLQQLQLTSAATVNSLMTPPAFAMPGTAYSINGLLGTLPQPSLLDDKFTNLSTQSADMSLVYSTGLVGEHDWTMRTPMVILPQNYCGQL", "soluble on expression in E. coli": "not soluble"},
      {"sequence": "MVKKMCQDYLSSSGLCSQETLEINNDKVAESLGITEFLRKKEIHPDNLGPKHLSRDMDGEQLEGASSEKREREAAEEGLASVKRPRREALSNDTTESLAANSRGREKPRPLHALAAGTIVSQEEDIVTVTDAEGRACGWAR", "soluble on expression in E. coli": "soluble"},
      {"sequence": "MGSDKIHHHHHHMKDNYDAPESMLTGRVMYNGEALQLRGNEAVQLQLYQHGYAKHDPINVYVNQDGMYSANLFDGEYQMITKSGNGPWTSEGRDTINVTVAGNTVQDVEVTPYYLVRDAQMTLEGNKVNASFKVEKVAGGGIDRVFFMLSTTQFVNDAEHNVDRYDETDNLDAYDETGKLYTFATRDYTDNSMFQTALKRGTLFGRICIWPKGSDQGIYSKVIRLK", "soluble on expression in E. coli": "not soluble"}
    ]}
  ]
}
